The record followed here is patent publication US20240199716A1 (ANTLIA BIOSCIENCE, published 2024).

Assay [1] has as its target human natriuretic polypeptide receptor hNPR1 (the membrane-bound guanylate cyclase receptor of BNP) (human) (UniProt P16066). As to the kind of experiment: cell-based or functional assay.
Assay [2] addresses T1, human natriuretic polypeptide receptor hNPR1 (the membrane-bound guanylate cyclase receptor of BNP) (human, UniProt P16066 33-1061).
T1 sequence (looked up): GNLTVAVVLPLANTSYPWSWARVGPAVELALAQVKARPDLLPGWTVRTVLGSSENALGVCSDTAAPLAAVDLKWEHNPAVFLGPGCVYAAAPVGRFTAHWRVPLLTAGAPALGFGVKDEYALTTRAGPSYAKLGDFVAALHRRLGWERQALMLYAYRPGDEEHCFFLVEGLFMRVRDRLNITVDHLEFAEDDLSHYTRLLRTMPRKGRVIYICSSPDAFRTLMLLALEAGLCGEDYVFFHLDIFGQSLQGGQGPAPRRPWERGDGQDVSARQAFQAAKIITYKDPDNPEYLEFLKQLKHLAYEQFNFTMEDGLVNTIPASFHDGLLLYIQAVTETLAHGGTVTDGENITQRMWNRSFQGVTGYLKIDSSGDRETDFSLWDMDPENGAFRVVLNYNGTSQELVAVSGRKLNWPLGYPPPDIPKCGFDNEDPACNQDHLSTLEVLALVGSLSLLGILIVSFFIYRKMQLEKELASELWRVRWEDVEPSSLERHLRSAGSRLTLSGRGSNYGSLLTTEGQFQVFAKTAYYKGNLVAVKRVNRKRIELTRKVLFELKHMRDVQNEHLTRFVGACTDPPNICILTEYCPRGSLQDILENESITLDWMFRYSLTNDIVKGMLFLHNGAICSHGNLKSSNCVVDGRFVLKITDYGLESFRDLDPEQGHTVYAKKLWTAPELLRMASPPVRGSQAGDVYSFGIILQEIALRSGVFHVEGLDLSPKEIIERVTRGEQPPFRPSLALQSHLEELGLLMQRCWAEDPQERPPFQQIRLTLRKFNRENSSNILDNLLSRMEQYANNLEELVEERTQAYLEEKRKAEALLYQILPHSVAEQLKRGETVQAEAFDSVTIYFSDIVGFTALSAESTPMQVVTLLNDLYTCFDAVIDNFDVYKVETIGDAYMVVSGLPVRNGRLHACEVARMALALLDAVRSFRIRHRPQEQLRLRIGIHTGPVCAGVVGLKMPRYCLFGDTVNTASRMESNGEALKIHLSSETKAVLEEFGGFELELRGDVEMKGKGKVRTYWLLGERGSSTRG
As to the kind of experiment: cell-based or functional assay.

As usually defined, the pEC50 is −log10 of the EC50, conventionally taken in molar units. With PAS600-hBNP(1-32) (ligand), in assay [1], the Log dose ratio from hBNP(1-32) (NPR-1 cGMP assay, HEK293T/17) came out at 1.5; the Maximum % control (cGMP HTRF, % response to BNP1-32 10 µM) was found to be 97.4%; the PEC50 (n) (cGMP HTRF, transiently transfected HEK293T/17 cells) stood at 6.57; the Potency fold loss from hBNP(1-32) (NPR-1 cGMP assay, HEK293T/17) was determined as 31.8 fold. The pEC50 in assay [1] was 6.57.

With PAS800-hBNP(1-32) (ligand), in assay [1], the Log dose ratio from hBNP(1-32) (NPR-1 cGMP assay, HEK293T/17) is 1.54; the Maximum % control (cGMP HTRF, % response to BNP1-32 10 µM) worked out at 89.1%; the PEC50 (n) (cGMP HTRF, transiently transfected HEK293T/17 cells) turned out to be 6.53; the Potency fold loss from hBNP(1-32) (NPR-1 cGMP assay, HEK293T/17) worked out at 34.3 fold. Also, the pEC50 in assay [1] was 6.53.

For the molecule PAS400-hBNP(1-32) (ligand), in assay [1], the Log dose ratio from hBNP(1-32) (NPR-1 cGMP assay, HEK293T/17) turned out to be 1.58; the Maximum % control (cGMP HTRF, % response to BNP1-32 10 µM) was 97.3%; the PEC50 (n) (cGMP HTRF, transiently transfected HEK293T/17 cells) amounted to 6.49; the Potency fold loss from hBNP(1-32) (NPR-1 cGMP assay, HEK293T/17) was 38.2 fold. In addition, in assay [1], the fold reduction in potency relative to PAS200 (NPR-1 cGMP assay, HEK293T/17) came out at 5.2 fold and the pEC50 amounted to 6.49.

B1: Compound 2, P-(SEQ ID No:2)10-A-hBNP(3-32) (PAS attached to the alpha amino group of the N-terminal lysine 3) (ligand)
chain: PASPAAPAPASPAAPAPSAPAASPAAPAPASPAAPAPSAPAASPAAPAPASPAAPAPSAPAASPAAPAPASPAAPAPSAPAASPAAPAPASPAAPAPSAPAASPAAPAPASPAAPAPSAPAASPAAPAPASPAAPAPSAPAASPAAPAPASPAAPAPSAPAASPAAPAPASPAAPAPSAPAASPAAPAPASPAAPAPSAPAAKMVQGSGCFGRKMDRISSSSGLGCKVLRRH
As to B1, in assay [2], the “log EC50 (cGMP, TR-FRET, % Activation, CHO-K1 cells transfected with hNPR1)” value is -7.84; the “log dose ratio from hBNP(1-32) (hNPR1 cGMP agonist assay)” value was -1.39; the “potency fold loss from hBNP(1-32) (hNPR1 cGMP agonist assay)” value was 25 fold.

B2: Compound 3, P-(SEQ ID No:2)10-A-hBNP(6-32) (PAS attached to N-terminus of glutamine 6) (ligand)
chain: PASPAAPAPASPAAPAPSAPAASPAAPAPASPAAPAPSAPAASPAAPAPASPAAPAPSAPAASPAAPAPASPAAPAPSAPAASPAAPAPASPAAPAPSAPAASPAAPAPASPAAPAPSAPAASPAAPAPASPAAPAPSAPAASPAAPAPASPAAPAPSAPAASPAAPAPASPAAPAPSAPAASPAAPAPASPAAPAPSAPAAQGSGCFGRKMDRISSSSGLGCKVLRRH
Turning to B2, in assay [2], the “log EC50 (cGMP, TR-FRET, % Activation, CHO-K1 cells transfected with hNPR1)” value was -7.31; the “log dose ratio from hBNP(1-32) (hNPR1 cGMP agonist assay)” value was -1.92; the “potency fold loss from hBNP(1-32) (hNPR1 cGMP agonist assay)” value was found to be 83 fold.

B3: Compound 5, hBNP(1-30)-(SEQ ID No:2)10-A (PAS attached to carboxy group of the C-terminal arginine 30) (ligand)
chain: SPKMVQGSGCFGRKMDRISSSSGLGCKVLRASPAAPAPASPAAPAPSAPAASPAAPAPASPAAPAPSAPAASPAAPAPASPAAPAPSAPAASPAAPAPASPAAPAPSAPAASPAAPAPASPAAPAPSAPAASPAAPAPASPAAPAPSAPAASPAAPAPASPAAPAPSAPAASPAAPAPASPAAPAPSAPAASPAAPAPASPAAPAPSAPAASPAAPAPASPAAPAPSAPAA
B3: in assay [2], the “log EC50 (cGMP, TR-FRET, % Activation, CHO-K1 cells transfected with hNPR1)” value was -7.28; the “log dose ratio from hBNP(1-32) (hNPR1 cGMP agonist assay)” value was -1.95; the “potency fold loss from hBNP(1-32) (hNPR1 cGMP agonist assay)” value was 89 fold.
